Measurements as given in patent US20230118307A1, “THERAPEUTIC USE OF LONG-ACTING CONJUGATE OF TRIPLE AGONIST HAVING ACTIVITIES TO ALL OF GLUCAGON/GLP-1/GIP RECEPTORS FOR LUNG DISEASE” (HANMI PHARM. CO., LTD., priority 2020, published 2023).
Positions of bridges follow the written chain, without caps; N, C: chain ends. Non-standard residues stand in square brackets, D forms with d. No end group written: not given here. *: point of attachment. Acetyl(2-(4-imidazolyl)) = O=C(Cc1c[nH]cn1)*; Aib = CC(C)(N)C(=O)O

B1: triple agonist of SEQ ID NO: 89 (peptide)
peptide: [Acetyl(2-(4-imidazolyl))][Aib]QGTFTSDYSKYLDEKRQKEFVQWLLDTKC
modifications: bridge 16-20
B2: triple agonist of SEQ ID NO: 98 (peptide)
peptide: Y[Aib]QGTFTSDYSKALDEKAAKEFVNWLLDHHPSSGQPPPSC
modifications: bridge 16-20
B3: triple agonist of SEQ ID NO: 90 (peptide)
peptide: [Acetyl(2-(4-imidazolyl))][Aib]EGTFTSDYSIAMDEIHQKDFVNWLLAQKC
modifications: bridge 16-20
B4: triple agonist of SEQ ID NO: 2 (peptide)
peptide: H[Aib]QGTFTSDVSSYLDGQAQKEFIAWLVKGC
B5: triple agonist of SEQ ID NO: 19 (peptide)
peptide: [Acetyl(2-(4-imidazolyl))]GQGTFTSDLSIQYDSEHQRDFIEWLKDTGPSSGAPPPSHG
B6: triple agonist of SEQ ID NO: 96 (peptide)
peptide: Y[Aib]QGTFTSDYSKYLDEKRAKEFVQWLLDHCPSSGQPPPS
modifications: bridge 16-20
B7: triple agonist of SEQ ID NO: 12 (peptide)
peptide: [Acetyl(2-(4-imidazolyl))]GEGTFISDLSKYMDEQAVQLFVEWLMAGGPSSGAPPPSHG
B8: triple agonist of SEQ ID NO: 95 (peptide)
peptide: Y[Aib]QGTFTSDYSKYLDEKRAKEFVQWLLCHHPSSGQPPPS
modifications: bridge 16-20
B9: triple agonist of SEQ ID NO: 17 (peptide)
peptide: [Acetyl(2-(4-imidazolyl))]GQGTFTSDLSKQMDEERAREFIEWLLAQKPSSGAPPPSHG
B10: triple agonist of SEQ ID NO: 16 (peptide)
peptide: [Acetyl(2-(4-imidazolyl))]GQGTFTSDLSKQMDSEAQQLFIEWLKNGGPSSGAPPPSHG
B11: triple agonist of SEQ ID NO: 20 (peptide)
peptide: [Acetyl(2-(4-imidazolyl))]GQGTFTSDLSIQYEEEAQQDFVEWLKDTGPSSGAPPPSHG
B12: triple agonist of SEQ ID NO: 97 (peptide)
peptide: Y[Aib]QGTFTSDYSKYLDEKRAKEFVQWLLDCHPSSGQPPPS
modifications: bridge 16-20
B13: triple agonist of SEQ ID NO: 102 (peptide)
peptide: Y[Aib]QGTFTSDYSKALDEKAAKDFVNWLLDQHPSSGQPPPSC
modifications: bridge 16-20
B14: triple agonist of SEQ ID NO: 94 (peptide)
peptide: [Acetyl(2-(4-imidazolyl))][Aib]QGTFTSDYSIAMDEIHQKDFVNWLLNTKC
modifications: bridge 16-20

Molecular target: human GCG receptor (human, UniProt P47871 26-477)
Sequence (P47871 26-477): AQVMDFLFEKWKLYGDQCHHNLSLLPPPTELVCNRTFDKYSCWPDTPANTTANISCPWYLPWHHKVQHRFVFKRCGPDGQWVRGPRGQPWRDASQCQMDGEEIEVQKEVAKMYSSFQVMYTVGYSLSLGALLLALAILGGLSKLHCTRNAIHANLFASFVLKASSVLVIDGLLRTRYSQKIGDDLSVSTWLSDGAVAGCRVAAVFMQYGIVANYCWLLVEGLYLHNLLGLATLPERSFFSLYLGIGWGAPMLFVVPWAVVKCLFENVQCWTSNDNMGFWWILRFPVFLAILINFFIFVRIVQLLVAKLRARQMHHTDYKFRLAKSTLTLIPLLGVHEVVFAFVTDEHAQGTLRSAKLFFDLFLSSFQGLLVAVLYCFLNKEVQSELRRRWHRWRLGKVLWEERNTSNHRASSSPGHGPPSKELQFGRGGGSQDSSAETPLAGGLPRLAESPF
Test: cell-based or functional assay

Binder	In vitro Activity Compared to Native Peptide (%) vs. Glucagon [%]
B1	0.7
B2	8.2
B3	< 0.1
B4	< 0.1
B5	< 0.1
B6	195
B7	< 0.1
B8	0.4
B9	< 0.1
B10	< 0.1
B11	< 0.1
B12	62.8
B13	29.5
B14	< 0.1

Molecular target: T1, human GIP receptor (human, UniProt P48546 22-466)
T1 sequence (looked up): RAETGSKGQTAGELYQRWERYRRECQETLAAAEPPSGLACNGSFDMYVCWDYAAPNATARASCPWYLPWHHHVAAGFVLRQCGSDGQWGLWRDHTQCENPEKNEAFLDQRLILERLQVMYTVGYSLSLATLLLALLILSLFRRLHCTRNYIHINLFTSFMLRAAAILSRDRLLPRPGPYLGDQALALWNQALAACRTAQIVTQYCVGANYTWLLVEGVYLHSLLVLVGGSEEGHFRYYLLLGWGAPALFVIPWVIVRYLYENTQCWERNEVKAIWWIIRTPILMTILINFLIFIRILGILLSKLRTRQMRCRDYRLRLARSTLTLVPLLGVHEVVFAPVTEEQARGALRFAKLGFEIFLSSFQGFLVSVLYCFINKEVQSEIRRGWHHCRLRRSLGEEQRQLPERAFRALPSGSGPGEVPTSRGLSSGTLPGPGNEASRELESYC
Test: cell-based or functional assay

Binder	In vitro Activity Compared to Native Peptide (%) vs. GIP [%]
B1	< 0.1
B2	47.1
B3	< 0.1
B4	< 0.1
B5	< 0.1
B6	5.2
B7	< 0.1
B8	< 0.1
B9	< 0.1
B10	< 0.1
B11	< 0.1
B12	2.6
B13	58
B14	< 0.1

Molecular target: human GLP-1 receptor (human, UniProt P43220 24-463)
Test: cell-based or functional assay

Binder	In vitro Activity Compared to Native Peptide (%) vs. GLP-1 [%]
B1	7.1
B2	28.1
B3	7.4
B4	5.9
B5	< 0.1
B6	34.4
B7	0.4
B8	2.1
B9	0.2
B10	2.1
B11	< 0.1
B12	10.5
B13	23.3
B14	0.5
